Measured values published in patent US20230036060A1, “DUAL-CONTROLLED DRUG AND PHOTOACTIVATABLE SYSTEM FOR SPATIOTEMPORAL CONTROL OF CELL THERAPY” (THE REGENTS OF THE UNIVERSITY OF CALIFORNIA, priority 2019, published 2023).

How the values were obtained:
[1] = molecular target: CIB1-CreC(106-343) (Arabidopsis thaliana) (UniProt Q8GY61); assay: cell-based or functional assay
NLS-pMag-CreC = assay: cell-based or functional assay
NLS-pMag-CreC, sequence (chain, as listed by the source): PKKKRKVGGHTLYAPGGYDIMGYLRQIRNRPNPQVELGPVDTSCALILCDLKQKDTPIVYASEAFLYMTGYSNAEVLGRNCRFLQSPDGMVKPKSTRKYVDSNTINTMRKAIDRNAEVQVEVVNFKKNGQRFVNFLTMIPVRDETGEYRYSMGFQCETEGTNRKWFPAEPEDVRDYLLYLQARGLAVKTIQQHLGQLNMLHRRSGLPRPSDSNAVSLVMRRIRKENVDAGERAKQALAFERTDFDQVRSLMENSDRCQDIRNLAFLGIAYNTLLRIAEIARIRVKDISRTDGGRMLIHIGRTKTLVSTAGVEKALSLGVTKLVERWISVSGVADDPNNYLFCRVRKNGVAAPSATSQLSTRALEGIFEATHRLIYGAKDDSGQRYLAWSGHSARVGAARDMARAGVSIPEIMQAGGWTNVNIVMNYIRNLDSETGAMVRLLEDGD

CreN(19-59)-nMag-NLS, sequence (P06956 19-59): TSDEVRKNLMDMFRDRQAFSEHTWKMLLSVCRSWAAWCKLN

Row | fold increase in Cre-loxP recombination, PA-Cre-C, Light against Dark [1] | normalized % recombined (EGFP+) EGFP Reporter HEK293T cells, PA-Cre-C, Light (30 W/m2, 30 s) [1] | fold increase in Cre-loxP recombination, PA-Cre-M, Light against Dark (NLS-pMag-CreC) | fold increase in recombined PA-Cre-M+ CAR Reporter Jurkat T cells, Light against Dark (NLS-pMag-CreC) | normalized % recombined (CAR-EGFP+) PA-Cre-M+ CAR Reporter Jurkat T cells, Dark (NLS-pMag-CreC) | normalized % recombined (CAR-EGFP+) PA-Cre-M+ CAR Reporter Jurkat T cells, Light, Protocol E (NLS-pMag-CreC) | normalized % recombined (EGFP+) EGFP Reporter HEK293T cells, PA-Cre-M, Light (30 W/m2, 30 s) (NLS-pMag-CreC) | normalized % recombined EGFP Reporter HEK293T cells, PA-Cre-M, Ambient light (NLS-pMag-CreC) | normalized % recombined EGFP Reporter HEK293T cells, PA-Cre-M, Ambient, Protocol B experiment (NLS-pMag-CreC) | normalized % recombined EGFP Reporter HEK293T cells, PA-Cre-M, Dark (pulsatile protocol experiment) (NLS-pMag-CreC) | normalized % recombined EGFP Reporter HEK293T cells, PA-Cre-M, Dark (spontaneous background) (NLS-pMag-CreC) | normalized % recombined EGFP Reporter HEK293T cells, PA-Cre-M, Dark, Protocol B experiment (NLS-pMag-CreC) | normalized % recombined EGFP Reporter HEK293T cells, PA-Cre-M, Light, Protocol B (NLS-pMag-CreC) | Substance
1 | 2.1 fold | 12.1% | – | – | – | – | – | – | – | – | – | – | – | CRY2(L348F)-CreN(19-104) (from UniProt Q96524 1-612; P06956 19-104)
2 | – | – | 3.4 fold | 4.1 fold | 5.2% | 21.2% | 90.8% | 28.9% | 45.2% | 20.4% | 26.7% | 32.9% | 84.8% | CreN(19-59)-nMag-NLS (from UniProt P06956 19-59)
